From patent US20240002497A1 (Merck Sharp & Dohme, published 2024) come the findings set out here.

Test [1] has as its target rhNav1.7α + β1-β2-β3 (rhesus monkey). Briefly: cell-based or functional assay.
Test [2] deals with huNav1.7α + β1 (human). Briefly: cell-based or functional assay.
The target in test [3] is T1, huNav1.7α + β1-β2-β3 (human, UniProt Q15858 1-1988; A5A6L6 19-218; O60939 30-215; Q2KI11 23-215).
T1 construct: also called huNav1.7-beta1-beta2-beta3; huNav1.7-β1-β2-β3
In words: competition FACS vs EC25 of 275B05(N93R), CHO FlpIn.

Test [4] has as its target T2, rhNav1.7α + β1-β2-β3 (rhesus monkey).
T2 construct: also called rhNav1.7-beta1-beta2-beta3; rhNav1.7-β1-β2-β3
The test is described as above.

The target in another test is T3, huNav1.7α+β1-β2-β3 (human, UniProt Q15858 1-1988; Q07699 19-218; O60939 30-215; Q9NY72 23-215).
T3 construct: 5N11S variant; also called huNav1.7-beta1-beta2-beta3; huNav1.7α+Navβ1-Navβ2-Navβ3
Briefly: binding FACS.

A further test concerns the target T4, rhNav1.7α+β1-β2-β3 (rhesus monkey α subunit with human β …).
T4 construct: P2A cleaves it into α, β1, β2, β3; also called rhNav1.7-beta1-beta2-beta3
In words: binding FACS.

Test [5] has as its target T5, huNav1.7α + β1-β2-β3 (human Nav1.7α co-expressed with Navβ1, Navβ2 and Navβ3) (human).
T5 construct: also called huNav1.7-beta1-beta2-beta3
In words: binding FACS; minus = lower activity than reference.

Test [6] deals with T6, muNav1.7α (murine Nav1.7α) (murine, UniProt Q62205 1-1984).
T6 construct: HEK Jmp-In cells
The test is described as above.

Test [7] concerns the target T7, rhNav1.7α + β1-β2-β3 (rhesus Nav1.7α co-expressed with Navβ1, Navβ2 and Navβ3) (rhesus monkey).
T7 construct: also called rhNav1.7-beta1-beta2-beta3
Briefly: binding FACS; plus = higher activity than reference.

Test [8] concerns the target T6, muNav1.7α (murine Nav1.7α). The test is described as above.
For test [9], the target named is T8, huNav1.7α + β1 (human).
T8 construct: HEK293 cells; also called huNav1.7-beta1; huNav1.7-β1
Briefly: binding FACS, HEK.

For the next test, the target named is T9, huNav1.7α (human, UniProt Q15858 1-1988).
T9 construct: HEK cells expressing the α subunit without β subunits; also called huNav1.7 (alpha-subunit); Human Nav1.7α
Briefly: binding FACS, HEK.

Test [10] concerns the target T2, rhNav1.7α + β1-β2-β3. Briefly: cell-based or functional assay. The source holds these as a separate data set.
The target of test [11] is T8, huNav1.7α + β1. Briefly: cell-based or functional assay. The source holds these as a separate data set.
The target of test [12] is T2, rhNav1.7α + β1-β2-β3. Briefly: cell-based or functional assay. This is another data set of the same source.
Test [13] concerns the target T8, huNav1.7α + β1. In words: cell-based or functional assay. The source holds these as a separate data set.
The target of test [14] is T1, huNav1.7α + β1-β2-β3. In words: competition FACS vs EC25 of 275B05(N93R), CHO FlpIn. This is another data set of the same source.
Test [15] deals with T2, rhNav1.7α + β1-β2-β3. The test is described as above. The source holds these as a separate data set.
For test [16], the target named is T1, huNav1.7α + β1-β2-β3. Briefly: competition FACS IC50 with 50 µM human SA against without.
Test [17] addresses T2, rhNav1.7α + β1-β2-β3. The description is as above.
Test [18] concerns the target T1, huNav1.7α + β1-β2-β3. Briefly: competition FACS vs EC25 of 275B05(N93R), CHO FlpIn, + 50 µM human SA.
Test [19] deals with T2, rhNav1.7α + β1-β2-β3. The test is described as above.

Read-outs that look alike come from different tables or passages of the source.

B1: F010301452 (VHH)
VHH: EVQLVESGGGLVQPGGSLRLSCAASGPVFNINSMAWYRRAPGKQRELVAYSTPGWDWNYADSVKGRFTISRDNAKRVYLQMNSLTPEDTAVYYCRWLLQPSIYDISRTYWGQGTLVTVSS
notes: Tagless version of F010300659 by its description; also called F0103275B05(S27P, I28V, S50Y, N53P, G55W, S56D, T57W, N93R, A94W)
The IC50 is the concentration that inhibits the measured activity by half. On to B1, for which the “QPatch electrophysiology IC50 [M], HEK cells” value in the test with rhNav1.7α + β1-β2-β3 [1] is 1.8e-08 M; with huNav1.7α + β1 [2], 2.1e-08 M. The IC50 with huNav1.7α + β1-β2-β3 [3] is 30 nM; in the test with rhNav1.7α + β1-β2-β3 [4], 16 nM.

B2: F010302383 (VHH)
VHH: EVQLVESGGGVVQPGGSLRLSCAASGPVFNINRMAWYRQAPGKQRELVAYVTPTGDISYADSVKGRFTISRGGSKRVYLQMNSLRPEDTALYYCRALLQPSSYSGTRTYWGQGTLVTVSS
notes: also called F0103387G04(L11V, A12V, K33R, R39Q, S50Y, S56D, T60A, D72G, W78V, S79Y, T83R, V89L, N93R, D99S, N100cG)+FLAG3-HIS6
As to B2, the “fold improved binding vs F0103387G04” value with huNav1.7α+β1-β2-β3 was 2 fold; in the test with rhNav1.7α+β1-β2-β3 it was 20 fold.

B3: F010301877 (VHH)
VHH: EVQLVESGGGVVQPGGSLRLSCATTSRAFIRDVFTGWYRRVPGKERELVARIYNGGNTNYADFAKGRFTISRDNAKNMVYLQMNSLRPEDTALYYCLFSGTINTGREYRSGDYWGQGTLVTVSS
notes: also called F0103464B09(L11V, S68T, K76N, T79Y, R81Q, S82aN, N82bS, K83R, G88A, V89L); K76N
Regarding B3, the “EC50 fold change compared to reference” value is -2 fold in [5] and -4 fold in [6].

B4: F010301893 (VHH)
VHH: EVQLVESGGGVVQPGGSLRLSCATTSRAFIRDVFTGWYRRVPGKQRELVARIYNGGNTNYADFAKGRFTISRDNAKKMVYLQMNSLRPEDTALYYCLFSGTINTGREYRSGDYWGQGTLVTVSS
notes: also called F0103464B09(L11V, E44Q, S68T, T79Y, R81Q, S82aN, N82bS, K83R, G88A, V89L); E44Q
Turning to B4, the “EC50 fold change compared to reference” value in [7] and in test [8] was 3 fold throughout.

B5: F010301656 (VHH)
VHH: EVQLVESGGGLAQPGGSLRLSCAASGPVFNINRMAWYRRAPGKQRELVAYVTPTGDISYTDSVKGRFTISRDGSKRWSLQMNSLTPEDTAVYYCRALLQPDSYSNTRTYWGQGTLVTVSS
notes: also called F0103387G04(K33R, S50Y, S56D, N93R)-FLAG3-HIS6
As usually defined, the EC50 is the concentration needed to bring the measured effect to its halfway point. With B5, the EC50 with huNav1.7α + β1 [9] worked out at 4.2 nM; in the test with huNav1.7α it was 4.9 nM. The “Qpatch IC50 [M], HEK cells” value was determined as 6e-09 M in the test with rhNav1.7α + β1-β2-β3 [10] and 1.8e-08 M with huNav1.7α + β1 [11]. For the same molecule, the “QPatch electrophysiology IC50 [M], HEK cells” value worked out at 6e-09 M with rhNav1.7α + β1-β2-β3 [12] and 1.8e-08 M with huNav1.7α + β1 [13]. Also, the IC50 was 37 nM in the test with huNav1.7α + β1-β2-β3 [14], 14 nM in the test with rhNav1.7α + β1-β2-β3 [15], 39 nM with huNav1.7α + β1-β2-β3 [18] and 16 nM with rhNav1.7α + β1-β2-β3 [19]. Also, the “Human SA ratio” value in the test with huNav1.7α + β1-β2-β3 [16] and in the test with rhNav1.7α + β1-β2-β3 [17] was 1 throughout.
